Laboratory results taken from patent US20200247855A1, “THERAPY AND DIAGNOSTICS” (OXFORD UNIVERSITY INNOVATION LIMITED, priority 2017, published 2020).

T1: CCL21_HUMAN (Homo sapiens, UniProt O00585)
T1 sequence (O00585 24-134): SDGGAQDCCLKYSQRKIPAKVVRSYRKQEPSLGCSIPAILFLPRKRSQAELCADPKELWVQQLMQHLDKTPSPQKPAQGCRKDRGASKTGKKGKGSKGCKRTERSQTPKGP

T2: CCL4_HUMAN (Homo sapiens, UniProt P13236)
T2 sequence (P13236 24-92): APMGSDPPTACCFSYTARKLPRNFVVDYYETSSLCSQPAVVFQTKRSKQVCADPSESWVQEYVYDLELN

T3: CCL5_HUMAN (Homo sapiens, UniProt P13501)
T3 sequence (P13501 24-91): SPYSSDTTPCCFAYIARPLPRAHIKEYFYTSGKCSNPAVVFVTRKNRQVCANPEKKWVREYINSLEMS

T4: CCL25_HUMAN (Homo sapiens, UniProt O15444)
T4 sequence (O15444 24-150): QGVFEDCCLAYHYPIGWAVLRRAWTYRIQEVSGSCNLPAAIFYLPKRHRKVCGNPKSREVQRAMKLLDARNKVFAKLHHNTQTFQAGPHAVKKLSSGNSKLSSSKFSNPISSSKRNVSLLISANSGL


Assays:
[1] = test system: leucocyte recruitment to the zymosan air-pouch; assay: Zymosan subcutaneous dorsal air-pouch inflammation model; format: in vivo; details: 5 mg/kg, exudate at 24 hours, mouse
Procedure: Zymosan or PBS (control) was injected into the air-pouch (a.p.) on day 6. Peptide or protein (blue) was injected into the air-pouch on day 6 at the time of zymosan injection and repeated 9 hours later. Air-pouch exudate was collected and analysed on day 7 by flow cytometry (FC).
G. Experimental design to assess efficacy of intraperitoneally administered peptide. This is identical to that used for locally administered peptide (above) except that peptide or protein was administered intraperitoneally (i.p.).
C57BL/6J male mice (25-30 g, 8-10-week-old) were obtained from Charles River (UK). They were group housed in temperature and humidity-controlled rooms, kept on a 12-hr light-dark cycle, and provided with food and water ad libitum. Air pouches were established at the dorsal side of the mice as described (Duarte, D. B. et al., Curr Protoc Pharmacol [2016]). […] Total numbers of leucocytes, neutrophils, monocytes, T-cells and eosinophils were counted using an Attune N×T flow cytometer following staining with cell specific antibodies. […]
To characterize the inflammatory subsets in the pouch, multi-colour fluorescence cell staining was conducted using the combination of the following antibodies for various immune cells. […] Data were analysed using FlowJo by an observer blinded to the treatment received. […]

CCL20_HUMAN = CCL20_HUMAN (Homo sapiens, UniProt P78556); details: data obtained from publications [20-22,32]; cited from earlier work
CCL21_HUMAN = target: T1, CCL21_HUMAN; details: data obtained from publications [20-22,32]; read-out: Kd, CCL21_HUMAN, previously described evasins; cited from earlier work
CCL4_HUMAN = target: T2, CCL4_HUMAN; details: data obtained from publications [20-22,32]; cited from earlier work
CCL5_HUMAN = target: T3, CCL5_HUMAN; details: read-out: Kd, CCL5_HUMAN, previously described evasins; data obtained from publications [20-22,32]; cited from earlier work
CCL7_HUMAN = CCL7_HUMAN (Homo sapiens, UniProt P80098); details: read-out: Kd, CCL7_HUMAN, previously described evasins; data obtained from publications [20-22,32]; cited from earlier work
CCL11_HUMAN = CCL11_HUMAN (Homo sapiens, UniProt P51671); details: read-out: Kd, CCL11_HUMAN, previously described evasins; data obtained from publications [20-22,32]; cited from earlier work
CCL25_HUMAN = target: T4, CCL25_HUMAN; details: read-out: Kd, CCL25_HUMAN, previously described evasins; data obtained from publications [20-22,32]; cited from earlier work
CCL26_HUMAN = CCL26_HUMAN (Homo sapiens, UniProt Q9Y258); details: read-out: Kd, CCL26_HUMAN, previously described evasins; data obtained from publications [20-22,32]; cited from earlier work
Chain of CCL26_HUMAN (Q9Y258 24-94): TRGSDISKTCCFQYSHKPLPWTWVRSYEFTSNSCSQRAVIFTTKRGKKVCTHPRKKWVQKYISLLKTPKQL

Chain of CCL7_HUMAN (P80098 24-99): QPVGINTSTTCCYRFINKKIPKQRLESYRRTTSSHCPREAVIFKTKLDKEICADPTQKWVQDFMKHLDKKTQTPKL
Chain of CCL11_HUMAN (P51671 24-97): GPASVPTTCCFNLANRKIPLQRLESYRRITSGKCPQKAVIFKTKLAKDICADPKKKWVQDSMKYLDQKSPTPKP
Chain of CCL20_HUMAN (P78556 27-96): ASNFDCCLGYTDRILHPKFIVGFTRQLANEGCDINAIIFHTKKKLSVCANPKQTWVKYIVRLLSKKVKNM

| Molecule | Number of neutrophils, eosinophils, monocytes and T-cells recruited to the air-pouch, local administration ([1]; injected into the air-pouch at 0 and 9 h) | Number of neutrophils, eosinophils, monocytes and T-cells recruited to the air-pouch, intraperitoneal administration ([1]; injected intraperitoneally at 0 and 9 h) | Kd, CCL20_HUMAN, previously described evasins (CCL20_HUMAN) | Kd (CCL21_HUMAN) | Kd, CCL4_HUMAN, previously described evasins (CCL4_HUMAN) | Kd (CCL5_HUMAN) | Kd (CCL7_HUMAN) | Kd (CCL11_HUMAN) | Kd (CCL25_HUMAN) | Kd (CCL26_HUMAN) |
| --- | --- | --- | --- | --- | --- | --- | --- | --- | --- | --- |
| P672_RHIPU: tick CKBP, Rhipicephalus pulchellus (protein, listed as Rhipicephalus pulchellus) VCEVSEQEGVGEDNATEDEDYEDFFKPVTCYFANSTVGPLRPPNCTVVCTNNTAWWNDTKSDGGHCYSEYRPEKRTHSREIYNCTIGVCGNGTCIANHTYADCW | strong and significant reduction | substantial and significant reduction |  |  |  |  |  |  |  |  |
| EVASIN4: previously described tick CKBP evasin 4, from Rhipicephalus sanguineus (protein, listed as Rhipicephalus sanguineus) EVPQMTSSSAPDLEEEDDYTAYAPLTCYFTNSTLGLLAPPNCSVLCNSTTTWFNETSPNNASCLLTVDFLTQDAILQENQPYNCSVGHCDNGTCAGPPRHAQCW |  |  | No Binding | 0.01 nM | No Binding | 0.09 nM | 0.7 nM | 0.34 nM | 69.6 nM | 0.88 nM |
